This is an account of results in patent US20180037651A1 (Janssen / Centocor, published 2018).

In one assay the target is T1, murine GPRC5D (murine, UniProt Q9JIL6 1-344).
T1 construct: also called mouse GPRC5D
T1 sequence: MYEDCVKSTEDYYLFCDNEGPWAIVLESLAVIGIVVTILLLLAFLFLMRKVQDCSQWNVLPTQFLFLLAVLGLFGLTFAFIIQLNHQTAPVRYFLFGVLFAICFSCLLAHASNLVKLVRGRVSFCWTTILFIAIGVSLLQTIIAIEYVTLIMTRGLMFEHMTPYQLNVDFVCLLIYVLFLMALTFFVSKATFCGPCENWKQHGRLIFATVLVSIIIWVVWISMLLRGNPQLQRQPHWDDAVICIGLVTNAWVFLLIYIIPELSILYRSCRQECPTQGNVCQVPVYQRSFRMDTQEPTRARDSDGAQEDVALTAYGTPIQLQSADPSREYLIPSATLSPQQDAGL
The assay can be described thus: FACS, murine GPRC5D. Background: In flow cytometry, cells or beads pass a laser one at a time.

Assay [1] deals with T2, human GPRC5D (human, UniProt Q9NZD1 1-345). The assay can be described thus: cell-based or functional assay.
For assay [2], the target named is T3, cyno GPRC5D (cyno, UniProt Q9NZD1 1-343 (human entry)).
T3 chain: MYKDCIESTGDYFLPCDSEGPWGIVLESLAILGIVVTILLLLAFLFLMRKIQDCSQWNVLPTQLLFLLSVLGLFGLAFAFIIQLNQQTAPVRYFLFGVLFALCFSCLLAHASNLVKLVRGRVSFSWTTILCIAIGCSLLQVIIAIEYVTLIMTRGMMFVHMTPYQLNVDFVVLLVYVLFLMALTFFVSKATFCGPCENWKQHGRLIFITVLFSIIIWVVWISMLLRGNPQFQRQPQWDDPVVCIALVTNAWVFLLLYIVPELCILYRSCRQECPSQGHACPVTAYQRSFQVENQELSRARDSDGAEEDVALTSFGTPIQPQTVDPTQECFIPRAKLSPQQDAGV
The assay is described as follows: cell-based or functional assay.

Assay [3] deals with T2, human GPRC5D. The assay can be described thus: FACS binding to plasma cells in MM patient MM305BM bone marrow MNCs.
Assay [4] concerns the target T2, human GPRC5D. The assay is described as follows: FACS binding to plasma cells in MM patient MM303BM bone marrow MNCs.
Assay [5] concerns the target T2, human GPRC5D. The assay is described as follows: FACS titration, human GPRC5D HEK293 cells.
Assay [6] concerns the target T3, cyno GPRC5D. The assay can be described thus: cell-based or functional assay.
For assay [7], the target named is T2, human GPRC5D. The assay can be described thus: FACS, human GPRC5D cells.

T2 sequence (Q9NZD1 whole entry): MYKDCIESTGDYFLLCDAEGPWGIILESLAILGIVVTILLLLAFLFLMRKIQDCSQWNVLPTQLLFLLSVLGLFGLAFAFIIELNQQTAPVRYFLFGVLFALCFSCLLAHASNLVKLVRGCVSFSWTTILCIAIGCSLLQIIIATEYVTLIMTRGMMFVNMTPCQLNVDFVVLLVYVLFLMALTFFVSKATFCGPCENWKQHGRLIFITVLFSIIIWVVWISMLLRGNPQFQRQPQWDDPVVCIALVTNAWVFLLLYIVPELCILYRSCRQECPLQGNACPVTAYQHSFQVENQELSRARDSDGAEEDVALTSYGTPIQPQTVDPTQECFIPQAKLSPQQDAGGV

B1: GCDB53 (bispecific antibody, IgG4, V domains shown)
VH 1: not shown
VL 1: not shown
VH 2: EVQLVESGGGLVQPGGSLRLSCAASGFTFNTYAMNWVRQAPGKGLEWVARIRSKYNNYATYYAASVKGRFTISRDDSKNSLYLQMNSLKTEDTAVYYCARHGNFGNSYVSWFAYWGQGTLVTVSS
VL 2: QTVVTQEPSLTVSPGGTVTLTCRSSTGAVTTSNYANWVQQKPGQAPRGLIGGTNKRAPGTPARFSGSLLGGKAALTLSGVQPEDEAEYYCALWYSNLWVFGGGTKLTVL
notes: IgG4-PAA by Fab arm exchange; CD3 arm also F405L, R409K; also called GC5B465 x CD3B219
For orientation: EC50 means the concentration that produces a half-maximal response. The low end stands for higher potency in that assay, the high end for lower potency in that assay. As to B1, the MFI with murine GPRC5D is 2660 MFI. In addition, in the assay with human GPRC5D [1], the “T-cell redirection cytotoxicity EC50, human GPRC5D HEK cells” value came out at 0.08 nM. Also, the “T-cell redirection cytotoxicity EC50, cyno GPRC5D HEK cells” value with cyno GPRC5D [2] came to 0.36 nM. Moreover, the EC50 with human GPRC5D [3] was 10.2 nM; with human GPRC5D [4] it was 3.98 nM.

B2: GCDB44 (bispecific antibody, IgG4, V domains shown)
VH 1: not shown
VL 1: EIVLTQSPATLSLSPGERATLSCRASQSVSSYLAWYQQKPGQAPRLLIYDASNRATGIPARFSGSGSGTDFTLTISSLEPEDFAVYYCQQRSNWPLTFGQGTKVEIK
VH 2: EVQLVESGGGLVQPGGSLRLSCAASGFTFNTYAMNWVRQAPGKGLEWVARIRSKYNNYATYYAASVKGRFTISRDDSKNSLYLQMNSLKTEDTAVYYCARHGNFGNSYVSWFAYWGQGTLVTVSS
VL 2: QTVVTQEPSLTVSPGGTVTLTCRSSTGAVTTSNYANWVQQKPGQAPRGLIGGTNKRAPGTPARFSGSLLGGKAALTLSGVQPEDEAEYYCALWYSNLWVFGGGTKLTVL
notes: IgG4-PAA bispecific; also called GC5B320 x CD3B219
As for B2, the binding result in the assay with human GPRC5D [5] is recorded as “binds”.

B3: GCDB61 (bispecific antibody, IgG4, V domains shown)
VH 1: EVQLVQSGAEVKKPGESLKISCKGSGYSFTSYFIGWVRQMPGKGLEWMGIIYPGKSDTRYSPSFQGQVTISADKSISTAYLQWSSLKASDTAMYYCARVYSFGGRHKALFDYWGQGTLVTVSS
VL 1: EIVLTQSPATLSLSPGERATLSCRASQSVSSYLAWYQQKPGQAPRLLIYDASNRATGIPARFSGSGSGTDFTLTISSLEPEDFAVYYCQQRSNWPLTFGQGTKVEIK
VH 2: EVQLVESGGGLVQPGGSLRLSCAASGFTFNTYAMNWVRQAPGKGLEWVARIRSKYNNYATYYAASVKGRFTISRDDSKNSLYLQMNSLKTEDTAVYYCARHGNFGNSYVSWFAYWGQGTLVTVSS
VL 2: QTVVTQEPSLTVSPGGTVTLTCRSSTGAVTTSNYANWVQQKPGQAPRGLIGGTNKRAPGTPARFSGSLLGGKAALTLSGVQPEDEAEYYCALWYSNLWVFGGGTKLTVL
notes: IgG4-PAA by Fab arm exchange; CD3 arm also F405L, R409K; also called GC5B483 x CD3B219
The molecule B3 yielded an MFI with murine GPRC5D of 3550 MFI. In addition, the “T-cell redirection cytotoxicity EC50, human GPRC5D HEK cells” value with human GPRC5D [1] was 0.03 nM. Also, in the assay with cyno GPRC5D [2], the “T-cell redirection cytotoxicity EC50, cyno GPRC5D HEK cells” value was found to be 1.22 nM. Moreover, the EC50 with human GPRC5D [3] turned out to be 6.93 nM; with human GPRC5D [4] it was 5.53 nM.

B4: GCDB32 (bispecific antibody, human IgG4 S228P, lambda, F234A L235A)
heavy 1: not shown
VL: not shown
heavy 2: EVQLVESGGGLVQPGGSLRLSCAASGFTFNTYAMNWVRQAPGKGLEWVARIRSKYNNYATYYAASVKGRFTISRDDSKNSLYLQMNSLKTEDTAVYYCARHGNFGNSYVSWFAYWGQGTLVTVSSASTKGPSVFPLAPCSRSTSESTAALGCLVKDYFPEPVTVSWNSGALTSGVHTFPAVLQSSGLYSLSSVVTVPSSSLGTKTYTCNVDHKPSNTKVDKRVESKYGPPCPPCPAPEAAGGPSVFLFPPKPKDTLMISRTPEVTCVVVDVSQEDPEVQFNWYVDGVEVHNAKTKPREEQFNSTYRVVSVLTVLHQDWLNGKEYKCKVSNKGLPSSIEKTISKAKGQPREPQVYTLPPSQEEMTKNQVSLTCLVKGFYPSDIAVEWESNGQPENNYKTTPPVLDSDGSFLLYSKLTVDKSRWQEGNVFSCSVMHEALHNHYTQKSLSLSLGK
light: QTVVTQEPSLTVSPGGTVTLTCRSSTGAVTTSNYANWVQQKPGQAPRGLIGGTNKRAPGTPARFSGSLLGGKAALTLSGVQPEDEAEYYCALWYSNLWVFGGGTKLTVLGQPKAAPSVTLFPPSSEELQANKATLVCLISDFYPGAVTVAWKADSSPVKAGVETTTPSKQSNNKYAASSYLSLTPEQWKSHRSYSCQVTHEGSTVEKTVAPTECS
notes: IgG4-PAA by Fab arm exchange; also called GC5B81 x CD3B219; copies: 1 + 1 + 1 + 1
In the assay with murine GPRC5D, B4 returned an MFI of 1150 MFI. Further, the “T cell mediated target cell killing, Cyno GPRC5D EC50” value with cyno GPRC5D [6] is 0.19 nM. For the same molecule, in the assay with human GPRC5D [1], the “T-cell redirection cytotoxicity EC50, human GPRC5D HEK cells” value turned out to be 0.04 nM. In addition, in the assay with cyno GPRC5D [2], the “T-cell redirection cytotoxicity EC50, cyno GPRC5D HEK cells” value was 0.07 nM. For the same molecule, the EC50 is 70.4 nM with human GPRC5D [3] and 16.1 nM in the assay with human GPRC5D [4].

B5: GCDB35 (bispecific antibody, IgG4)
heavy 1: not shown
VL: EIVLTQSPATLSLSPGERATLSCRASQSVSSYLAWYQQKPGQAPRLLIYDASNRATGIPARFSGSGSGTDFTLTISSLEPEDFAVYYCQQRSNWPLTFGQGTKVEIK
heavy 2: EVQLVESGGGLVQPGGSLRLSCAASGFTFNTYAMNWVRQAPGKGLEWVARIRSKYNNYATYYAASVKGRFTISRDDSKNSLYLQMNSLKTEDTAVYYCARHGNFGNSYVSWFAYWGQGTLVTVSSASTKGPSVFPLAPCSRSTSESTAALGCLVKDYFPEPVTVSWNSGALTSGVHTFPAVLQSSGLYSLSSVVTVPSSSLGTKTYTCNVDHKPSNTKVDKRVESKYGPPCPPCPAPEAAGGPSVFLFPPKPKDTLMISRTPEVTCVVVDVSQEDPEVQFNWYVDGVEVHNAKTKPREEQFNSTYRVVSVLTVLHQDWLNGKEYKCKVSNKGLPSSIEKTISKAKGQPREPQVYTLPPSQEEMTKNQVSLTCLVKGFYPSDIAVEWESNGQPENNYKTTPPVLDSDGSFLLYSKLTVDKSRWQEGNVFSCSVMHEALHNHYTQKSLSLSLGK
light: QTVVTQEPSLTVSPGGTVTLTCRSSTGAVTTSNYANWVQQKPGQAPRGLIGGTNKRAPGTPARFSGSLLGGKAALTLSGVQPEDEAEYYCALWYSNLWVFGGGTKLTVLGQPKAAPSVTLFPPSSEELQANKATLVCLISDFYPGAVTVAWKADSSPVKAGVETTTPSKQSNNKYAASSYLSLTPEQWKSHRSYSCQVTHEGSTVEKTVAPTECS
With B5, the “T cell mediated target cell killing, Cyno GPRC5D EC50” value with cyno GPRC5D [6] was 4.65 nM.

B6: GC5B590 (antibody, V domains shown)
VH: QVTLKESGPVLVKPTETLTLTCTVSGFSLTSYNVHWIRQPPGKALEWLAVIWAGGSTNYNSALKSRLTISKDTSKSQVVLTMTNMRAEDTATYYCARDGIRLRFAYWGQGTLVTVSS
VL: EIVMTQSPATLSVSPGERATLSCKASQNVATHVGWYQQKPGQAPRLLIYSASYRYSGIPARFSGSGSGTEFTLTISSLQSEDFAVYYCQQYNRYPYTFGQGTKLEIK
notes: GC5B540 PTM variant
Turning to B6, the binding result with human GPRC5D [7] is on record as “binds”.

B7: GC5B594 (antibody, V domains shown)
VH: QVTLKESGPVLVKPTETLTLTCTVSGFSLTSYNVHWIRQPPGKALEWLAVIWAGGSTNYNSALKSRLTISKDTSKSQVVLTMTNMRAEDTATYYCARDAIRLRFAYWGQGTLVTVSS
VL: EIVMTQSPATLSVSPGERATLSCKASQNVATHVGWYQQKPGQAPRLLIYSASYRYSGIPARFSGSGSGTEFTLTISSLQSEDFAVYYCQQYNRYPYTFGQGTKLEIK
notes: GC5B540 PTM variant
Turning to B7, in the assay with human GPRC5D [7], the binding result is on record as “binds”.

B8: GC5B592 (antibody, V domains shown)
VH: QVTLKESGPVLVKPTETLTLTCTVSGFSLTSYNVHWIRQPPGKALEWLAVIWAGGSTNYNSALMSRLTISKDTSKSQVVLTMTNMRAEDTATYYCARDAIRLRFAYWGQGTLVTVSS
VL: EIVMTQSPATLSVSPGERATLSCKASQNVATHVGWYQQKPGQAPRLLIYSASYRYSGIPARFSGSGSGTEFTLTISSLQSEDFAVYYCQQYNRYPYTFGQGTKLEIK
notes: GC5B540 PTM variant
Consider B8, for which the binding result with human GPRC5D [7] was “binds”.
